Reference: publication PMC3954793, “SHP-2 Binds to Caveolin-1 and Regulates Src Activity via Competitive Inhibition of CSK in Response to H2O2 in Astrocytes” (PLoS ONE, 2014)

Assays:
SHP-2 = SHP-2 (UniProt Q06124); assay: PepSPOT peptide array overlay; settings: reference: nonphosphorylated 13-mer peptides; sites Y14
CSK = CSK (UniProt P41240); assay: PepSPOT peptide array overlay; settings: reference: nonphosphorylated 13-mer peptides; sites Y14

## caveolin-1 13-mers within 1-28 (from UniProt Q03135) pY14 13-mer peptides
SHP-2
  binding against the reference: stronger
CSK
  binding against the reference: stronger
